Assay results reported in paper PMC3284512.

T1: MUC1 peptide1 (APDTRPAPG epitope) (UniProt P15941)
T1 chain: APDTRPAPG

T2: MUC1 peptide2 (entire tandem repeat) (UniProt P15941)
T2 chain: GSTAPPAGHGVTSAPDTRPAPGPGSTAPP


Key:
[1] = test system: MA3 (DNA, aptamer) AACCGCCCAAATCCCTAAGAGTCGGACTGCAACCTATGCTATCGTTGATGTCTGTCCAAGCAACACAGACACACTACACACGCACA; assay: fluorescence quenching of doxorubicin; conditions: aqueous solution, 1 h; Dox 3 nM as printed; intercalation; quenching complete at aptamer/Dox 0.1
[2] = biological target: T1, MUC1 peptide1 (APDTRPAPG epitope); assay: flow cytometry, bead binding; Hanks buffer (binding buffer), 37 C, 30 min, 200 ul; aptamer DNA heated 95 C 5 min then cooled to 0 C (stated for SELEX pool and Dox loading); pH not stated; conditions: tags: EDC-coupled to carboxylated magnetic beads; label: 5'-FITC
[3] = biological target: T2, MUC1 peptide2 (entire tandem repeat); assay: as above; conditions: tags: EDC-coupled to magnetic beads; label: 5'-FITC

binding [1] | Molecule | Kd [2] | binding result [3]
yes | COc1cccc2c1C(=O)c1c(O)c3c(c(O)c1C2=O)C[C@@](O)(C(=O)CO)C[C@@H]3O[C@H]1C[C@H](N)[C@H](O)[C@H](C)O1 | – | –
– | MA3 (ssDNA) DNA: AACCGCCCAAATCCCTAAGAGTCGGACTGCAACCTATGCTATCGTTGATGTCTGTCCAAGCAACACAGACACACTACACACGCACA | 38.3 nM | binds
